B1: NGF: NGF (Sigma 2.5 S #N-6009) (protein, UniProt P01139 122-241, looked up)
Beta-nerve growth factor: SSTHPVFHMGEFSVCDSVSVWVGDKTTATDIKGKEVTVLAEVNINNSVFRQYFFETKCRASNPVESGCRGIDSKHWNSYCTTTHTFVKALTTDEKQAAWRFIRIDTACVCVLSRKATRRG
modifications: 2.5S NGF
B2: Ephrin B2: ligand of receptor tyrosine kinases EPHB1, EPHB2, EPHB3 (protein, UniProt P52799 28-333, looked up)
Ephrin-B2: IVLEPIYWNSSNSKFLPGQGLVLYPQIGDKLDIICPKVDSKTVGQYEYYKVYMVDKDQADRCTIKKENTPLLNCAKPDQDIKFTIKFQEFSPNLWGLEFQKNKDYYIISTSNGSLEGLDNQEGGVCQTRAMKILMKVGQDASSAGSTRNKDPTRRPELEAGTNGRSSTTSPFVKPNPGSSTDGNSAGHSGNNILGSEVALFAGIASGCIIFIVIIITLVVLLLKYRRRHRKHSPQHTTTLSLSTLATPKRSGNNNGSEPSDIIIPLRTADSVFCPHYEKVSGDYGHPVYIVQEMPPQSPANIYYKV
B3: BDNF: ligand of receptor tyrosine kinase NTRK2 (protein, UniProt P23560 19-247, looked up)
Neurotrophic factor BDNF …: APMKEANIRGQGGLAYPGVRTHGTLESVNGPKAGSRGLTSLADTFEHVIEELLDEDQKVRPNEENNKDADLYTSRVMLSSQVPLEPPLLFLLEEYKNYLDAANMSMRVRRHSDPARRGELSVCDSISEWVTAADKKTAVDMSGGTVTVLEKVPVSKGQLKQYFYETKCNPMGYTKEGCRGIDKRHWNSQCRTTQSYVRALTMDSKKRIGWRFIRIDTSCVCTLTIKRGR
B4: Pehrin A3: ligand of receptor tyrosine kinases EPHA2 and EPHA3 (protein, UniProt P52797 23-214, looked up)
Ephrin-A3: QGPGGALGNRHAVYWNSSNQHLRREGYTVQVNVNDYLDIYCPHYNSSGVGPGAGPGPGGGAEQYVLYMVSRNGYRTCNASQGFKRWECNRPHAPHSPIKFSEKFQRYSAFSLGYEFHAGHEYYYISTPTHNLHWKCLRMKVFVCCASTSHSGEKPVPTLPQFTMGPNVKINVLEDFEGENPQVPKLEKSISG

Tests used:
[1] = test system: human neuroblastoma SHSY5Y; experiment: Marker enzyme expression (ChAT, TH) in the presence of each ligand of the receptor tyrosine kinase; format: cell-based; conditions: SHSY5Y cells, ChAT vs TH, beta-actin control, FIG. 19
Description: Cholinergic neuron-like cells were identified by using anti-choline acetyltransferase antibody, and dopaminergic neuron-like cells were identified by using anti-tyrosine hydroxylase antibody, both of which are available from Clontech.
Next, the marker enzyme expression in the presence of each ligand of the receptor tyrosine kinase has been studied.

[2] = test system: human neuroblastoma SHSY5Y; experiment: Differentiation (neuritegenesis) of SH-SY5Y cells by RA or NGF; format: cell-based; conditions: SH-SY5Y culture with RA or NGF added, FIG. 13
Description: Human neuroblastoma (SHSY5Y) cells were maintained in Eagle's minimum essential medium (EMEM) supplemented with 10% (v/v) foetal bovine serum (FBS), 2% (v/v) glutamine and 1% (v/v) penicillin/streptomycin (10% medium), hereafter referred to as growth medium. Cells were incubated at 37° C. in a humidified atmosphere of 5% carbon dioxide.
Differentiation has been performed according to Yamada Y. et al., Neurosci Lett. 2004 Jun. 24; 364(1):11-15. Briefly, 100 ng/ml of NGF or […] of retinoic acid was added to the culture medium differentiate the SHSY5Y cells. Usually, when retinoic acid is added, the cell differentiates into cholinergic neuron-like cell as exemplified in FIG. 13. When NGF is added, the cell differentiates into dopaminergic neuron-like cells as exemplified in FIG. 13.

Molecule	Marker enzyme expression (ChAT, TH) in the presence of ligand [1]	Differentiation of SH-SY5Y cells [2]
insulin: ligand of receptor tyrosine kinase INSR [reference compound]	dopaminergic	
B1	dopaminergic	differentiated into doperminergia neuron-like cells
B2	dopaminergic	
B3	dopaminergic	
B4	dopaminergic	

Source: US20070174009A1, “Methods and systems for analyzing a network of biological functions” (National Institute Of Advanced Industrial Science And …, priority 2004, published 2007)
